Patent US20250000904A1

Experiments:
Assay in all cases: cell-based or functional assay
[1] = target: TGFβR2-IL2Rβ signaling redirector receptor
[2] = target: TGFβR2-IL12Rβ signaling redirector receptor
[3] = target: TGFβR2-IL21Rβ signaling redirector receptor

Measured: increase in tumor cell numbers over base input after three rounds of restimulation, with recombinant TGFβ

Sequence of TGFβR2-IL12Rβ signaling redirector receptor (main, as listed by the source): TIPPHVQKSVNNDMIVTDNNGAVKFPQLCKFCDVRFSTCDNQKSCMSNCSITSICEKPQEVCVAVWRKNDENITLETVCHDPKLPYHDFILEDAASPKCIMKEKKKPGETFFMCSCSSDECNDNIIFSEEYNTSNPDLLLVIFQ
Sequence of TGFβR2-IL2Rβ signaling redirector receptor (chain, as listed by the source): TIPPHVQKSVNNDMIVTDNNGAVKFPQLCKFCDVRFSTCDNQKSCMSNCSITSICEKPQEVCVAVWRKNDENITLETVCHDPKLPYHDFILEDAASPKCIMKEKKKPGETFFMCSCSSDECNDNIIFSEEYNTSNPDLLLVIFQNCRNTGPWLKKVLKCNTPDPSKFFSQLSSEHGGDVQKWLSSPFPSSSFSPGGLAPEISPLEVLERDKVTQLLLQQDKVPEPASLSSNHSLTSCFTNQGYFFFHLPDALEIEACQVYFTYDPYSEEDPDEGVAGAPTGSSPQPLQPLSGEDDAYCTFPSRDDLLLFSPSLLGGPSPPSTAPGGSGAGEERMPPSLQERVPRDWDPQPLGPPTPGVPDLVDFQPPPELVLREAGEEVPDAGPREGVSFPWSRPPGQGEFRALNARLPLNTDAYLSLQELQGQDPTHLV
Sequence of TGFβR2-IL21Rβ signaling redirector receptor (chain, as listed by the source): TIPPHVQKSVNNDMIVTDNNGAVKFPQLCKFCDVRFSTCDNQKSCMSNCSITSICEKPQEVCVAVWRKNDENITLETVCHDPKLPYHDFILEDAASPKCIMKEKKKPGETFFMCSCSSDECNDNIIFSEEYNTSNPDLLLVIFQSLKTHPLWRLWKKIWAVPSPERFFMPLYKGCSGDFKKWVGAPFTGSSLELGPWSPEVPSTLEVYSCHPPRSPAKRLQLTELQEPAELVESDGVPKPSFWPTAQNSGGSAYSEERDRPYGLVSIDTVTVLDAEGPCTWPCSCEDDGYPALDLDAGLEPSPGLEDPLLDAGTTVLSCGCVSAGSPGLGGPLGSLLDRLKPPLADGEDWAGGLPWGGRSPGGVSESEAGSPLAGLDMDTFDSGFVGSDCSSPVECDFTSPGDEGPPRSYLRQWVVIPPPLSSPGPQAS

recombinant TGFβ (ligand)
1.5 fold: all assays above
